In patent US20160002357A1:
Several values for one entry are separate records, joined by “and”; a condition that tells them apart may be missing. Equal values may be shown once.

B1: 154 EK-DART (bispecific antibody)
chain 1: QSVLTQPPSVSAAPGQKVTISCSGSSSNIGNNYVSWYQQLPGTAPKLLIYDNNKRPSGIPDRFSGSKSGTSATLGITGLQTGDEADYYCGTWDSSLSSYVFGTGTKVTVLGGGSGGGGEVQLVESGGGLVQPGGSLRLSCAASGFTFNTYAMNWVRQAPGKGLEWVARIRSKYNNYATYYADSVKDRFTISRDDSKNSLYLQMNSLKTEDTAVYYCVRHGNFGNSYVSWFAYWGQGTLVTVSSGGCGGGKVAALKEKVAALKEKVAALKEKVAALKE
chain 2: QAVVTQEPSLTVSPGGTVTLTCRSSTGAVTTSNYANWVQQKPGQAPRGLIGGTNKRAPWTPARFSGSLLGGKAALTITGAQAEDEADYYCALWYSNLWVFGGGTKLTVLGGGGSGGGGEVQLVQSGAEVKKPGASVKVSCKASGYTFTSYGISWVRQAPGQGLEWMGWISAYNGNTNYAQKLQGRVTMTTDTSTSTAYMELRSLRSDDTAVYYCATIDTATAFDIWGQGTMVTVSSGGCGGGEVAALEKEVAALEKEVAALEKEVAALEK
B2: 165 EK-DART (bispecific antibody)
chain 1: QSVLTQPPSVSAAPGQKVTISCSGSSSNIGNNYVSWYQQLPGTAPKLLIYDNNKRPSGIPDRFSGSKSGTSATLGITGLQAGDEADYYCGTWDSSLSAYVFGTGTKVTVLGGGSGGGGEVQLVESGGGLVQPGGSLRLSCAASGFTFNTYAMNWVRQAPGKGLEWVARIRSKYNNYATYYADSVKDRFTISRDDSKNSLYLQMNSLKTEDTAVYYCVRHGNFGNSYVSWFAYWGQGTLVTVSSGGCGGGKVAALKEKVAALKEKVAALKEKVAALKE
chain 2: QAVVTQEPSLTVSPGGTVTLTCRSSTGAVTTSNYANWVQQKPGQAPRGLIGGTNKRAPWTPARFSGSLLGGKAALTITGAQAEDEADYYCALWYSNLWVFGGGTKLTVLGGGGSGGGGEVQLVQSGAEVKKPGASVKVSCKASGYTFTSYGISWVRQAPGQGLEWMGWISAYNGNTNYAQKLQGRVTMTTDTSTSTAYMELRSLRSDDTAVYYCATIDTANAFDIWGQGTMVTVSSGGCGGGEVAALEKEVAALEKEVAALEKEVAALEK
B3: 177 EK-DART (bispecific antibody)
chain 1: QSVLTQPPSVSAAPGQKVTISCSGSSSNIGNNYVSWYQQLPGTAPKLLIYDNNKRPSGIPDRFSGSKSGTSATLGITGLQTGDEADYYCGTWDSSLSAYVFGTGTKVTVLGGGSGGGGEVQLVESGGGLVQPGGSLRLSCAASGFTFNTYAMNWVRQAPGKGLEWVARIRSKYNNYATYYADSVKDRFTISRDDSKNSLYLQMNSLKTEDTAVYYCVRHGNFGNSYVSWFAYWGQGTLVTVSSGGCGGGKVAALKEKVAALKEKVAALKEKVAALKE
chain 2: QAVVTQEPSLTVSPGGTVTLTCRSSTGAVTTSNYANWVQQKPGQAPRGLIGGTNKRAPWTPARFSGSLLGGKAALTITGAQAEDEADYYCALWYSNLWVFGGGTKLTVLGGGGSGGGGEVQLVQSGAEVKKPGASVKVSCKASGYTFTSYGISWVRQAPGQGLEWMGWISAYNGNTNYAQKLQGRVTMTTDTSTSTAYMELRSLRSDDTAVYYCATIDTANAFDIWGQGTMVTVSSGGCGGGEVAALEKEVAALEKEVAALEKEVAALEK
B4: 178 EK-DART (bispecific antibody)
chain 1: QSVLTQPPSVSAAPGQKVTISCSGSSSNIGNNYVSWYQQLPGTAPKLLIYDNNKRPSGIPDRFSGSKSGTSATLGITGLQTGDEADYYCGTWDSSLSAVVFGGGTKLTVLGGGSGGGGEVQLVESGGGLVQPGGSLRLSCAASGFTFNTYAMNWVRQAPGKGLEWVARIRSKYNNYATYYADSVKDRFTISRDDSKNSLYLQMNSLKTEDTAVYYCVRHGNFGNSYVSWFAYWGQGTLVTVSSGGCGGGKVAALKEKVAALKEKVAALKEKVAALKE
chain 2: QAVVTQEPSLTVSPGGTVTLTCRSSTGAVTTSNYANWVQQKPGQAPRGLIGGTNKRAPWTPARFSGSLLGGKAALTITGAQAEDEADYYCALWYSNLWVFGGGTKLTVLGGGGSGGGGEVQLVQSGAEVKKPGASVKVSCKASGYTFTSYGISWVRQAPGQGLEWMGWISAYNGNTNYAQKLQGRVTMTTDTSTSTAYMELRSLRSDDTAVYYCATIDTANAFDIWGQGTMVTVSSGGCGGGEVAALEKEVAALEKEVAALEKEVAALEK
B5: 179 EK-DART (bispecific antibody)
chain 1: QSVLTQPPSVSAAPGQKVTISCSGSRSNIGNNYVSWYQQLPGTAPKLLIYDSNKRPSGIPDRFSGSKSGTSATLGITGLQTGDEADYYCGTWDSSLSSWVFGGGTKLTVLGGGSGGGGEVQLVESGGGLVQPGGSLRLSCAASGFTFNTYAMNWVRQAPGKGLEWVARIRSKYNNYATYYADSVKDRFTISRDDSKNSLYLQMNSLKTEDTAVYYCVRHGNFGNSYVSWFAYWGQGTLVTVSSGGCGGGKVAALKEKVAALKEKVAALKEKVAALKE
chain 2: QAVVTQEPSLTVSPGGTVTLTCRSSTGAVTTSNYANWVQQKPGQAPRGLIGGTNKRAPWTPARFSGSLLGGKAALTITGAQAEDEADYYCALWYSNLWVFGGGTKLTVLGGGGSGGGGEVQLVQSGAEVKKPGASVKVSCKASGYTFTSYGISWVRQAPGQGLEWMGWISAYNGNTNYAQKLQGRVTMTTDTSTSTAYMELRSLRSDDTAVYYCATIDTANAFDIWGQGTMVTVSSGGCGGGEVAALEKEVAALEKEVAALEKEVAALEK
B6: 180 EK-DART (bispecific antibody)
chain 1: QSVVTQPPSVSAAPGQKVTISCSGSSSNIGNNYVSWYQQLPGTAPKLLIYDNNKRPSGIPDRFSGSKSGTSATLGITGLQTGDEADYYCGTWDSSLSAYVFGTGTKVTVLGGGSGGGGEVQLVESGGGLVQPGGSLRLSCAASGFTFNTYAMNWVRQAPGKGLEWVARIRSKYNNYATYYADSVKDRFTISRDDSKNSLYLQMNSLKTEDTAVYYCVRHGNFGNSYVSWFAYWGQGTLVTVSSGGCGGGKVAALKEKVAALKEKVAALKEKVAALKE
chain 2: QAVVTQEPSLTVSPGGTVTLTCRSSTGAVTTSNYANWVQQKPGQAPRGLIGGTNKRAPWTPARFSGSLLGGKAALTITGAQAEDEADYYCALWYSNLWVFGGGTKLTVLGGGGSGGGGEVQLVQSGAEVKKPGASVKVSCKASGYTFTSYGISWVRQAPGQGLEWMGWISAYNGNTNYAQKLQGRVTMTTDTSTSTAYMELRSLRSDDTAVYYCATIDTANAFDIWGQGTMVTVSSGGCGGGEVAALEKEVAALEKEVAALEKEVAALEK
B7: 153 EK-DART (bispecific antibody)
chain 1: QSVLTQPPSVSAAPGQKVTISCSGSSSNIGNNYVSWYQQLPGTAPKLLIYDNNKRPSGIPDRFSGSKSGTSATLGITGLQTGDEADYYCGTWDSSLSGVVFGGGTKLTVLGGGSGGGGEVQLVESGGGLVQPGGSLRLSCAASGFTFNTYAMNWVRQAPGKGLEWVARIRSKYNNYATYYADSVKDRFTISRDDSKNSLYLQMNSLKTEDTAVYYCVRHGNFGNSYVSWFAYWGQGTLVTVSSGGCGGGKVAALKEKVAALKEKVAALKEKVAALKE
chain 2: QAVVTQEPSLTVSPGGTVTLTCRSSTGAVTTSNYANWVQQKPGQAPRGLIGGTNKRAPWTPARFSGSLLGGKAALTITGAQAEDEADYYCALWYSNLWVFGGGTKLTVLGGGGSGGGGEVQLVQSGAEVKKPGASVKVSCKASGYTFTSYGISWVRQAPGQGLEWMGWISAYNGNTNYAQKLQGRVTMTTDTSTSTAYMELRSLRSDDTAVYYCATIDTANAFGIWGQGTMVTVSSGGCGGGEVAALEKEVAALEKEVAALEKEVAALEK
B8: 33 EK-DART (bispecific antibody)
chain 1: QSVLTQPPSVSAAPGQKVTISCSGSSSNIGNNYVSWYQQLPGTAPKLLIYDNNKRPSGIPDRFSGSKSGTSATLGITGLQTGDEADYYCGTWDSSLSAYVFGTGTKVTVLGGGSGGGGEVQLVESGGGLVQPGGSLRLSCAASGFTFNTYAMNWVRQAPGKGLEWVARIRSKYNNYATYYADSVKDRFTISRDDSKNSLYLQMNSLKTEDTAVYYCVRHGNFGNSYVSWFAYWGQGTLVTVSSGGCGGGKVAALKEKVAALKEKVAALKEKVAALKE
chain 2: QAVVTQEPSLTVSPGGTVTLTCRSSTGAVTTSNYANWVQQKPGQAPRGLIGGTNKRAPWTPARFSGSLLGGKAALTITGAQAEDEADYYCALWYSNLWVFGGGTKLTVLGGGGSGGGGQMQLVQSGAEVKKPGASVKVSCKASGYTFTSYGISWVRQAPGQGLEWMGWISAYNGNTNYAQKLQGRVTMTTDTSTSTAYMELRSLRSDDTAVYYCALIGSGVAFDIWGQGTMVTVSSGGCGGGEVAALEKEVAALEKEVAALEKEVAALEK
B9: 34 EK-DART (bispecific antibody)
chain 1: QSVVTQPPSVSAAPGQKVTISCSGSSSNIGNNYVSWYQQLPGTAPKLLIYDNNKRPSGIPDRFSGSKSGTSATLGITGLQTGDEADYYCGTWDSSLSAWVFGGGTKLTVLGGGSGGGGEVQLVESGGGLVQPGGSLRLSCAASGFTFNTYAMNWVRQAPGKGLEWVARIRSKYNNYATYYADSVKDRFTISRDDSKNSLYLQMNSLKTEDTAVYYCVRHGNFGNSYVSWFAYWGQGTLVTVSSGGCGGGKVAALKEKVAALKEKVAALKEKVAALKE
chain 2: QAVVTQEPSLTVSPGGTVTLTCRSSTGAVTTSNYANWVQQKPGQAPRGLIGGTNKRAPWTPARFSGSLLGGKAALTITGAQAEDEADYYCALWYSNLWVFGGGTKLTVLGGGGSGGGGEVQLVQSGAEVKKPGASVKVSCKASGYTFTSYGISWVRQAPGQGLEWMGWISAYNGNTNYAQKLQGRVTMTTDTSTSTAYMELRSLRSDDTAVYYCATIDTASAFDIWGQGTMVTVSSGGCGGGEVAALEKEVAALEKEVAALEKEVAALEK
B10: 20 EK-DART (bispecific antibody)
chain 1: AIQMTQSPSSLSASVGDRVTITCRASQSIGKYLNWYQQIPGKAPKLLIYTASTLQTGVPSRFSGSGSGTDFTLTIVSLQPEDFATYYCQQSFNTPRTFGQGTKVEIKGGGSGGGGEVQLVESGGGLVQPGGSLRLSCAASGFTFNTYAMNWVRQAPGKGLEWVARIRSKYNNYATYYADSVKDRFTISRDDSKNSLYLQMNSLKTEDTAVYYCVRHGNFGNSYVSWFAYWGQGTLVTVSSGGCGGGKVAALKEKVAALKEKVAALKEKVAALKE
chain 2: QAVVTQEPSLTVSPGGTVTLTCRSSTGAVTTSNYANWVQQKPGQAPRGLIGGTNKRAPWTPARFSGSLLGGKAALTITGAQAEDEADYYCALWYSNLWVFGGGTKLTVLGGGGSGGGGEVQLVQSGAEVKKPGASVKVSCKASGYTFTGYYMHWVRQAPGQGLEWMGRINPNSGGTNYAQKFQGRVTMTRDTSISTAYMELSRLRSDDTAVYYCAKGSGSGAFDIWGQGTMVTVSSGGCGGGEVAALEKEVAALEKEVAALEKEVAALEK

What follows are binders tested against human soluble CD3 (human) (UniProt P07766) (assay: SPR Biacore).
Chain of human soluble CD3 (human) (P07766 23-126, chain 1 of 2): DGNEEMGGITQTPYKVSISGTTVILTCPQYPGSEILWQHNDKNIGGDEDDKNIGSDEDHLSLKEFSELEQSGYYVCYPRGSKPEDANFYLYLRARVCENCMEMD
Chain of human soluble CD3 (human) (P04234 22-105, chain 2 of 2, further chain): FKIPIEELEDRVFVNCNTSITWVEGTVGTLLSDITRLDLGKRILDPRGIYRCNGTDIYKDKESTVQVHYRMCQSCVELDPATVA
B1 showed a Kd of 17.1 nM, a koff of 0.00768 s⁻¹ and a kon of 456000 M⁻¹ s⁻¹. With B2 the Kd was 14.9 nM, the koff was 0.00417 s⁻¹ and the kon was 278000 M⁻¹ s⁻¹. For B3, the Kd was 19.9 nM, the koff was 0.00443 s⁻¹ and the kon was 253000 M⁻¹ s⁻¹. B4 was tested, and the Kd was 23.1 nM, the koff was 0.00526 s⁻¹ and the kon was 230000 M⁻¹ s⁻¹. B5 was tested, and the Kd was 25.8 nM, the koff was 0.00641 s⁻¹ and the kon was 306000 M⁻¹ s⁻¹. B6 was tested, and the Kd was 15.9 nM, the koff was 0.0111 s⁻¹ and the kon was 706000 M⁻¹ s⁻¹. For B7, the Kd was 15.7 nM, the koff was 0.00631 s⁻¹ and the kon was 403000 M⁻¹ s⁻¹.

The binders below were run against human soluble CD3 (human) (UniProt P07766) (assay: SPR Biacore pH 7.4).
In the case of B7, the Kd is reported as 22.3 nM and 24 nM, the koff is reported as 0.00618 s⁻¹ and 0.0068 s⁻¹ and the kon is reported as 277000 M⁻¹ s⁻¹ and 283000 M⁻¹ s⁻¹. The t½ was 1.76 min and 1.6 min.

What follows are binders tested against human soluble CD3 (human) (UniProt P07766) (assay: SPR Biacore pH 7.4, average).
B7 showed a Kd of 23.1 nM.

The binders below were run against human soluble CD3 (human) (UniProt P07766) (assay: SPR Biacore 3000, antigen immobilised).
B8 showed a Kd of 17.7 nM, a koff of 0.00403 s⁻¹ and a kon of 228000 M⁻¹ s⁻¹. B9 showed a Kd of 22.8 nM, a koff of 0.00445 s⁻¹ and a kon of 195000 M⁻¹ s⁻¹. Binder B10 has a Kd of 5.19 nM, a koff of 0.00609 s⁻¹ and a kon of 979000 M⁻¹ s⁻¹.
